# According to patent publication US20200199241A1 (Chugai, published 2020):
# Substitutions are numbered along the chain they refer to.
# B1: IgG1-F1154 (antibody)
# heavy: QVQLQESGPGLVKPSETLSLTCAVSGHSISHDHAWSWVRQPPGEGLEWIGFISYSGITNYNPSLQGRVTISRDNSKNTLYLQMNSLRAEDTAVYYCARSLARTTAMDYWGEGTLVTVSSASTKGPSVFPLAPSSKSTSGGTAALGCLVKDYFPEPVTVSWNSGALTSGVHTFPAVLQSSGLYSLSSVVTVPSSSLGTQTYICNVNHKPSNTKVDKKVEPKSCDKTHTCPPCPAPELRGGPKVFLFPPKPKDVLYISRTPEVTCVVVDVSHEDPEVKFNWYVDGVEVHNAKTKPREEQYNSTYRVVSVLQPLHADWLNGKEYKCKVSNKALPAPIEKTISKAKGQPREPQVYTLPPSRDELTKNQVSLTCLVKGFYPSDIAVEWESNGQPENNYKTTPPVLDSDGSFFLYSKLTVDKSRWQQGNVFNCSVMHEALHYHVTQKSLSLSP
# light: not shown
# notes: EU numbering; copies: 2 + 2
# B2: IgG1-F1183 (antibody)
# heavy: QVQLQESGPGLVKPSETLSLTCAVSGHSISHDHAWSWVRQPPGEGLEWIGFISYSGITNYNPSLQGRVTISRDNSKNTLYLQMNSLRAEDTAVYYCARSLARTTAMDYWGEGTLVTVSSASTKGPSVFPLAPSSKSTSGGTAALGCLVKDYFPEPVTVSWNSGALTSGVHTFPAVLQSSGLYSLSSVVTVPSSSLGTQTYICNVNHKPSNTKVDKKVEPKSCDKTHTCPPCPAPELLGGPSVFLFPPKPKDTLMISRTPEVTCVVVDVSHEDPEVKFNWYVDGVEVHNAKTKPREEQYNSTYRVVSVLTVLHQDWLNGKEYKCKVSNKALPAPIEKTISKAKGQPREPQVYTLPPSRDELTKNQVSLTCLVKGFYPSDIAVAWESNGQPENNYKTTPPVLDSDGSFFLYSKLTVDKSRWQQGNVFSCSVLHEALHSHYTQKSLSLSP
# light: not shown
# notes: EU numbering; copies: 2 + 2
# B3: IgG1-F1252 (antibody)
# heavy: B1 heavy with S256T, T258Q, Q309T, P310V, A313Q, N426S, Q440R, S442E
# light: not shown
# notes: EU numbering; copies: 2 + 2
# B4: IgG1-F1216 (antibody)
# heavy: B2 heavy with L253S, M254Y, A382E, L430M, S436Y, Y438V
# light: not shown
# notes: EU numbering; copies: 2 + 2
# B5: IgG1-F1200 (antibody)
# heavy: B2 heavy with T252V, M254Y, S256T, A382E, L430M, S436Y, Y438V, Q440R, S442E
# light: not shown
# notes: EU numbering; copies: 2 + 2
# B6: IgG1-F1248 (antibody)
# heavy: B1 heavy with S256T, T258E, Q309T, P310V, A313Q, N426S, Q440R, S442E
# light: not shown
# notes: EU numbering; copies: 2 + 2
# B7: IgG1-F1162 (antibody)
# heavy: B2 heavy with P240D, T252Y, M254Y, A382E, L430M, S436Y, Y438V
# light: not shown
# notes: EU numbering; copies: 2 + 2
# B8: IgG1-F1201 (antibody)
# heavy: B2 heavy with T252V, M254Y, T258E, A382E, L430M, S436Y, Y438V, Q440R, S442E
# light: not shown
# notes: EU numbering; copies: 2 + 2
# B9: IgG1-F1217 (antibody)
# heavy: B2 heavy with L253T, M254Y, A382E, L430M, S436Y, Y438V
# light: not shown
# notes: EU numbering; copies: 2 + 2
# B10: IgG1-F1250 (antibody)
# heavy: B1 heavy with V252T, S256T, T258Q, Q309T, P310V, A313Q, N426S, Q440R, S442E
# light: not shown
# notes: EU numbering; copies: 2 + 2
# B11: IgG1-F1218 (antibody)
# heavy: B2 heavy with L253V, M254Y, A382E, L430M, S436Y, Y438V
# light: not shown
# notes: EU numbering; copies: 2 + 2
# B12: IgG1-F1178 (antibody)
# heavy: B2 heavy with V261I, V310F, A382E, S436N
# light: not shown
# notes: EU numbering; copies: 2 + 2
# B13: IgG1-F1195 (antibody)
# heavy: B2 heavy with M254Y, A382E, L430M, S436Y, Y438V, Q440R, S442E, L443A
# light: not shown
# notes: EU numbering; copies: 2 + 2
# B14: IgG1-F1157 (antibody)
# heavy: B2 heavy with M254Y, A382E, L430M, S436Y, Q440R, S442E
# light: not shown
# notes: EU numbering; copies: 2 + 2
# B15: IgG1-F1184 (antibody)
# heavy: B2 heavy with T309A, A382E
# light: not shown
# notes: EU numbering; copies: 2 + 2
# B16: IgG1-F1243 (antibody)
# heavy: B1 heavy with V252T, S256T, Q309T, P310V, A313Q, N426S, Q440R, S442E
# light: not shown
# notes: EU numbering; copies: 2 + 2
# B17: IgG1-F1249 (antibody)
# heavy: B1 heavy with V252T, T258Q, Q309T, P310V, A313Q, N426S, Q440R, S442E
# light: not shown
# notes: EU numbering; copies: 2 + 2
# B18: IgG1-F1256 (antibody)
# heavy: B1 heavy with V252T, Q309T, P310V, A313H, N426S, Q440R, S442E
# light: not shown
# notes: EU numbering; copies: 2 + 2
# B19: IgG1-F1191 (antibody)
# heavy: B2 heavy with M254Y, A382E, L430M, S436Y, Y438V, T439A, Q440R, S442E
# light: not shown
# notes: EU numbering; copies: 2 + 2
# B20: IgG1-F1206 (antibody)
# heavy: B2 heavy with T252V, M254Y, S256T, T258Q, A382E, L430M, S436Y, Y438V, Q440R, S442E
# light: not shown
# notes: EU numbering; copies: 2 + 2
# B21: IgG1-F1232 (antibody)
# heavy: B2 heavy with M254Y, A382E, L430M, S436Y, Y438V, Q440K, S442D
# light: not shown
# notes: EU numbering; copies: 2 + 2
# B22: IgG1-F1207 (antibody)
# heavy: B2 heavy with I334E, A382E
# light: not shown
# notes: EU numbering; copies: 2 + 2
# B23: IgG1-F1230 (antibody)
# heavy: B2 heavy with M254Y, A382E, L430M, S436Y, Y438V, Q440R, S442D
# light: not shown
# notes: EU numbering; copies: 2 + 2
# B24: IgG1-F1194 (antibody)
# heavy: B2 heavy with M254Y, A382E, L430M, S436Y, Y438V, Q440R, K441D, S442E
# light: not shown
# notes: EU numbering; copies: 2 + 2
# B25: IgG1-F1203 (antibody)
# heavy: B2 heavy with M254Y, T258Q, A382E, L430M, S436Y, Y438V, Q440R, S442E
# light: not shown
# notes: EU numbering; copies: 2 + 2
# B26: IgG1-F1258 (antibody)
# heavy: B1 heavy with V252T, Q309A, P310V, A313H, N426S, Q440R, S442E
# light: not shown
# notes: EU numbering; copies: 2 + 2
# B27: IgG1-F1205 (antibody)
# heavy: B2 heavy with T252V, M254Y, T258Q, A382E, L430M, S436Y, Y438V, Q440R, S442E
# light: not shown
# notes: EU numbering; copies: 2 + 2
# B28: IgG1-F1259 (antibody)
# heavy: B1 heavy with V252T, P310V, N426S, Q440R, S442E
# light: not shown
# notes: EU numbering; copies: 2 + 2
# B29: IgG1-F1208 (antibody)
# heavy: B2 heavy with L253A, M254Y, A382E, L430M, S436Y, Y438V
# light: not shown
# notes: EU numbering; copies: 2 + 2
# B30: IgG1-F1198 (antibody)
# heavy: B2 heavy with M254Y, T258E, A382E, L430M, S436Y, Y438V, Q440R, S442E
# light: not shown
# notes: EU numbering; copies: 2 + 2
# Target: T1, soluble human FcRn complexed with β2-microglobulin (human, UniProt P61769 21-119, limits assumed)
# T1 construct: also called hFcRn
# T1 sequence (chain, as listed by the source limits assumed, chain 1 of 2): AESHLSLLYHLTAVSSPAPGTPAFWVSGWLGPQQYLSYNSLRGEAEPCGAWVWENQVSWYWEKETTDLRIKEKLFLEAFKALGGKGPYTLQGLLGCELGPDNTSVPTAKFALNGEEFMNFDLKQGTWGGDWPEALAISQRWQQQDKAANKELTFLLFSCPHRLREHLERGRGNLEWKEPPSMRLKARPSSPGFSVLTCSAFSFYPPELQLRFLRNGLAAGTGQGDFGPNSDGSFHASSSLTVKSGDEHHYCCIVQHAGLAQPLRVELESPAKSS
# T1 sequence (P61769 21-119 limits assumed, chain 2 of 2): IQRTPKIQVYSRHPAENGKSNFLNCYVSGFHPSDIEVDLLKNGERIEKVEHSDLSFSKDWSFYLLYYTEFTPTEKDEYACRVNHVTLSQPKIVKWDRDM
# Assay: Biacore SPR, pH 7.0;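 further: test antibodies captured on a Protein L chip with human FcRn flowed over as analyte, KD obtained as the ratio of dissociation to association rate constants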
row,Binder,Kd [nM]
1,B1,13.4
2,B2,1280
3,B3,233
4,B4,1160
5,B5,126
6,B6,120
7,B7,343
8,B8,107
9,B9,1140
10,B10,166
11,B11,251
12,B12,872
13,B13,176
14,B14,209
15,B15,1000
16,B16,125
17,B17,206
18,B18,156
19,B19,211
20,B20,169
21,B21,97.9
22,B22,1110
23,B23,112
24,B24,155
25,B25,152
26,B26,105
27,B27,198
28,B28,44.6
29,B29,571
30,B30,78.3
